Here are results for 97 variants from the supplement of paper PMC10567573.

B1: FUT8 (parent)
chain: YPSYKVREKIETVKYPTYPEAEK
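Further: lentivirally expressed fusions sorted by FACS into six bins by GFP to DsRed ratio, PSI derived from sequencing read proportions per bin multiplied by bin number.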

The variants in the series derive from B1. The experiment in a line: protein stability index of a GFP-peptide fusion (GPS, HEK-293T) (PSI 1-6); higher = more stable. As to conditions: c terminus: native.
Consider YPSYKVREKIETMKYPTYPEAEK [V13M], for which the protein stability index was 3.7.
To YPSYKVREKIETCKYPTYPEAEK [V13C] belongs 4.12; to YPSYKVREKIETYKYPTYPEAEK [V13Y], 3.72.
With YPSYKVREKIETNKYPTYPEAEK [V13N], the protein stability index came to 4.26.
The result for YPSYKVREKIETPKYPTYPEAEK [V13P] reads 4.24; that for YPSYKVREKIETDKYPTYPEAEK [V13D], 4.64; that for YPSYKVREKIETIKYPTYPEAEK [V13I], 4.29.
Consider YPSYKVREKIETRKYPTYPEAEK [V13R], for which the protein stability index came to 4.34.
The result for YPSYKVREKIETFKYPTYPEAEK [V13F] reads 3.77.
Take YPSYKVREKIETGKYPTYPEAEK [V13G]: the protein stability index is 4.66.
The result for YPSYKVREKIETHKYPTYPEAEK [V13H] reads 3.97.
To YPSYKVREKIETAKYPTYPEAEK [V13A] belongs 4.7.
As for YPSYKVREKIETEKYPTYPEAEK [V13E], the protein stability index stood at 4.79.
Take YPSYKVREKIETTKYPTYPEAEK [V13T]: the protein stability index is 4.18.
For YPSYKVREKIETLKYPTYPEAEK [V13L], the protein stability index came to 4.29.
Take YPSYKVREKIETSKYPTYPEAEK [V13S]: the protein stability index was determined as 4.69.
On to YPSYKVREKIETWKYPTYPEAEK [V13W], for which the protein stability index came out at 3.04.
As for YPSYKVREKIETQKYPTYPEAEK [V13Q], the protein stability index worked out at 4.49.
The result for YPSYKVREKIETKKYPTYPEAEK [V13K] reads 4.62; that for YPSYKVREKIETVKYPYYPEAEK [T17Y], 2.87; that for YPSYKVREKIETVKYPQYPEAEK [T17Q], 4.3.
Take YPSYKVREKIETVKYPMYPEAEK [T17M]: the protein stability index worked out at 3.77.
For YPSYKVREKIETVKYPVYPEAEK [T17V], the protein stability index stood at 4.
For the variant YPSYKVREKIETVKYPGYPEAEK [T17G], the protein stability index came out at 4.02.
The result for YPSYKVREKIETVKYPPYPEAEK [T17P] reads 4.46; that for YPSYKVREKIETVKYPFYPEAEK [T17F], 3.45.
For YPSYKVREKIETVKYPHYPEAEK [T17H], the protein stability index worked out at 4.41.
To YPSYKVREKIETVKYPSYPEAEK [T17S] belongs 4.79; to YPSYKVREKIETVKYPEYPEAEK [T17E], 4.43.
The result for YPSYKVREKIETVKYPIYPEAEK [T17I] reads 3.7; that for YPSYKVREKIETVKYPLYPEAEK [T17L], 3.6; that for YPSYKVREKIETVKYPWYPEAEK [T17W], 1.94.
To YPSYKVREKIETVKYPAYPEAEK [T17A] belongs 4.56; to YPSYKVREKIETVKYPRYPEAEK [T17R], 4.34; to YPSYKVREKIETVKYPNYPEAEK [T17N], 4.75.
In the case of YPSYKVREKIETVKYPDYPEAEK [T17D], the protein stability index is 3.7.
With YPSYKVREKIETVKYPCYPEAEK [T17C], the protein stability index is 3.8.
On to YPSYKVREKIETVKYPKYPEAEK [T17K], for which the protein stability index is 4.69.
The result for YPSYKVREKIETVKTPTYPEAEK [Y15T] reads 3.77; that for YPSYKVREKIETVKQPTYPEAEK [Y15Q], 4.77; that for YPSYKVREKIETVKVPTYPEAEK [Y15V], 4.18.
Regarding YPSYKVREKIETVKAPTYPEAEK [Y15A], the protein stability index stood at 3.39.
With YPSYKVREKIETVKRPTYPEAEK [Y15R], the protein stability index came out at 4.22.
The result for YPSYKVREKIETVKCPTYPEAEK [Y15C] reads 3.88; that for YPSYKVREKIETVKHPTYPEAEK [Y15H], 4.72; that for YPSYKVREKIETVKSPTYPEAEK [Y15S], 4.64.
To YPSYKVREKIETVKGPTYPEAEK [Y15G] belongs 4.85; to YPSYKVREKIETVKWPTYPEAEK [Y15W], 2.88; to YPSYKVREKIETVKIPTYPEAEK [Y15I], 4.58.
Consider YPSYKVREKIETVKFPTYPEAEK [Y15F], for which the protein stability index is 4.49.
To YPSYKVREKIETVKMPTYPEAEK [Y15M] belongs 4.48; to YPSYKVREKIETVKKPTYPEAEK [Y15K], 5.03; to YPSYKVREKIETVKEPTYPEAEK [Y15E], 4.59.
The result for YPSYKVREKIETVKDPTYPEAEK [Y15D] reads 5.2.
Take YPSYKVREKIETVKLPTYPEAEK [Y15L]: the protein stability index stood at 4.33.
Regarding YPSYKVREKIETVKPPTYPEAEK [Y15P], the protein stability index was 4.45.
To YPSYKVREKQETVKYPTYPEAEK [I10Q] belongs 4.17; to YPSYKVREKFETVKYPTYPEAEK [I10F], 4.36; to YPSYKVREKLETVKYPTYPEAEK [I10L], 4.28.
The result for YPSYKVREKPETVKYPTYPEAEK [I10P] reads 4.09; that for YPSYKVREKSETVKYPTYPEAEK [I10S], 4.46.
The result for YPSYKVREKRETVKYPTYPEAEK [I10R] reads 4.56; that for YPSYKVREKMETVKYPTYPEAEK [I10M], 4.35; that for YPSYKVREKYETVKYPTYPEAEK [I10Y], 4.29.
Take YPSYKVREKEETVKYPTYPEAEK [I10E]: the protein stability index was 4.61.
To YPSYKVREKWETVKYPTYPEAEK [I10W] belongs 2.87.
In the case of YPSYKVREKVETVKYPTYPEAEK [I10V], the protein stability index was 4.46.
To YPSYKVREKNETVKYPTYPEAEK [I10N] belongs 4.87; to YPSYKVREKKETVKYPTYPEAEK [I10K], 4.57.
The result for YPSYKVREKTETVKYPTYPEAEK [I10T] reads 4.97; that for YPSYKVREKHETVKYPTYPEAEK [I10H], 4.27.
For the variant YPSYKVREKIETVKYITYPEAEK [P16I], the protein stability index was found to be 3.65.
The result for YPSYKVREKIETVKYTTYPEAEK [P16T] reads 4.13; that for YPSYKVREKIETVKYYTYPEAEK [P16Y], 3.62; that for YPSYKVREKIETVKYHTYPEAEK [P16H], 4.06.
Consider YPSYKVREKIETVKYGTYPEAEK [P16G], for which the protein stability index was found to be 4.28.
With YPSYKVREKIETVKYLTYPEAEK [P16L], the protein stability index amounted to 4.03.
For YPSYKVREKIETVKYDTYPEAEK [P16D], the protein stability index was found to be 4.4.
The result for YPSYKVREKIETVKYATYPEAEK [P16A] reads 3.89; that for YPSYKVREKIETVKYNTYPEAEK [P16N], 4.12; that for YPSYKVREKIETVKYSTYPEAEK [P16S], 3.75.
Regarding YPSYKVREKIETVKYMTYPEAEK [P16M], the protein stability index was 4.
The result for YPSYKVREKIETVKYKTYPEAEK [P16K] reads 4.19; that for YPSYKVREKIETVKYVTYPEAEK [P16V], 4.6; that for YPSYKVREKIETVKYETYPEAEK [P16E], 4.29.
Consider YPSYKVREKIETVKYQTYPEAEK [P16Q], for which the protein stability index is 4.14.
As to YPSYKVREKIETVKYRTYPEAEK [P16R], the protein stability index amounted to 3.95.
As for YPSYKVREKIETVKYCTYPEAEK [P16C], the protein stability index amounted to 3.7.
To YPSYKVREKIETVKYWTYPEAEK [P16W] belongs 2.78.
For YPSYKVREKIETVKYFTYPEAEK [P16F], the protein stability index turned out to be 4.79.
The result for YPSYKVREKIETVKYPTYPMAEK [E20M] reads 3.55; that for YPSYKVREKIETVKYPTYPQAEK [E20Q], 3.61.
The result for YPSYKVREKIETVKYPTYPAAEK [E20A] reads 3.93; that for YPSYKVREKIETVKYPTYPCAEK [E20C], 3.33.
The result for YPSYKVREKIETVKYPTYPHAEK [E20H] reads 3.97; that for YPSYKVREKIETVKYPTYPLAEK [E20L], 3.5.
For YPSYKVREKIETVKYPTYPRAEK [E20R], the protein stability index stood at 3.63.
